Results published in US20120100139A1 (APTEVO RESEARCH AND DEVELOPMENT, published 2012).

Tests used:
CD86-mIgG (Ancell, Inc) [1] = target: T1, CD86-mIgG (Ancell, Inc) (UniProt P42081 24-247, limits assumed); test: SPR (BIAcore T100), CD86-mIgG immobilized on CM5; second site
T1 construct: Bought reagent
T1 sequence (looked up): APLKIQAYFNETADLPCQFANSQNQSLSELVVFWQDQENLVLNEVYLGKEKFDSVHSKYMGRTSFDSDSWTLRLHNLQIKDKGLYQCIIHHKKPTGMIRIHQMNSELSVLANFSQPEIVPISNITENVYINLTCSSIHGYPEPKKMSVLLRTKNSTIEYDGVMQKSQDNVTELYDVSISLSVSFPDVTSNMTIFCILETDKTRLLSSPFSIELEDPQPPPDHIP
Method: (§1) SPR measurements were performed on a BIAcore™ T100 SPR (Pharmacia Biotech AB, Uppsala) using HBS-EP+ (GE Healthcare) as a running buffer. […] CTLA4-containing constructs were injected for 150 seconds, at a flow rate of 10 μl/min, in a series of concentrations from 4 nM to 10 μM. Dissociation was monitored for 600 seconds, and the surface was either regenerated by injecting 50 mM sodium citrate, 500 mM sodium chloride, pH 5.0, for 60 seconds (wild type CTLA4) or 10 mM glycine, pH 1.7 (L104E A29Y CTLA4). […] Data were analyzed using BiaEvaluation for the T100 software (version 2.0.1, GE Healthcare).
(§2) SPR measurements were performed as listed above, with the following exceptions: HBS-P+ (GE Healthcare) was used as a running buffer; dissociation was monitored for 1200 seconds; and the surface was regenerated by injecting 10 mM glycine, pH 1.7, for 60 seconds.

CD86-mIgG (Ancell, Inc) [2] = target: T1, CD86-mIgG (Ancell, Inc); test: SPR (BIAcore T100), CD86-mIgG immobilized on CM5; first site
Method: as §1, §2

CD86-mIgG (Ancell, Inc) [3] = target: T1, CD86-mIgG (Ancell, Inc); test: SPR (BIAcore T100), CD86-mIgG immobilized on CM5; steady-state equilibrium fit
Method: as §1, §2

B1: FUN1-21 PIMS (Fc fusion)
chain: EPKSSDKTHTCPPCPAPEAAGAPSVFLFPPKPKDTLMISRTPEVTCVVVDVSHEDPEVKFNWYVDGVEVHNAKTKPREEQYNSTYRVVSVLTVLHQDWLNGKAYACAVSNKALPAPIEKTISKAKGQPREPQVYTLPPSRDELTKNQVSLTCLVKGFYPSDIAVEWESNGQPENNYKTTPPVLDSDGSFFLYSKLTVDKSRWQQGNVFSCSVMHEALHNHYTQKSLSLSPGNSLFNQEVQIPLTESYSPNSQVQLVQSGAEVKKPGASVKVSCKASGYTFTDYNMNWVRQAPGQGLEWMGNIDPYYGGTSYNQKFKGRVTMTRDTSISTAYMELSRLRSDDTAVYYCARWDYRYDDGRAYYVMDFWGQGTTVTVSSGGGGSGGGGSGGGGSGGGGSDIVMTQSPDSLAVSLGERATINCKSSQSVLYSSNQKNYLAWYQQKPGQPPKLLIYWASTRESGVPDRFSGSGSGTDFTLTISSLQAEDVAVYYCHQYLYSWTFGQGTKLEIKR
notes: PIMS: humanized FUN1-21 scFv at the carboxy-terminus
Second Site ka (CD86-mIgG (Ancell, Inc) [1]): 0.00113 s⁻¹
Second Site kd (CD86-mIgG (Ancell, Inc) [1]): 0.00837 s⁻¹
koff (CD86-mIgG (Ancell, Inc) [2]): 9.1e-05 s⁻¹
kon (CD86-mIgG (Ancell, Inc) [2]): 50000 M⁻¹ s⁻¹
Kd (CD86-mIgG (Ancell, Inc) [3]): 70.9 nM

B2: 3D1::IL10 xceptor (Fc fusion)
chain: QVQLQQSGPELVRPGESVKISCKGSGYTFTDYAIQWVKQSHAKSLEWIGVINIYYDNTNYNQKFKGKATMTVDKSSSTAYMELARLTSEDSAIYYCARAAWYMDYWGQGTSVTVSSGGGGSGGGGSGGGGSGGGGSDIVLSQSPSSLAVSAGEKVTMSCKSSQSLLNSRTRENYLAWYQQKPGQSPKLLIYWASTRESGVPDRFTGSGSGTDFTLTISSVQAEDLAVYYCTQSYNLYTFGGGTKLEIKLEPKSSDKTHTCPPCPAPEAAGAPSVFLFPPKPKDTLMISRTPEVTCVVVDVSHEDPEVKFNWYVDGVEVHNAKTKPREEQYNSTYRVVSVLTVLHQDWLNGKAYACAVSNKALPAPIEKTISKAKGQPREPQVYTLPPSRDELTKNQVSLTCLVKGFYPSDIAVEWESNGQPENNYKTTPPVLDSDGSFFLYSKLTVDKSRWQQGNVFSCSVMHEALHNHYTQKSLSLSPGNSLFNQEVQIPLTESYSPNSSPGQGTQSENSCTHFPGNLPNMLRDLRDAFSRVKTFFQMKDQLDNLLLKESLLEDFKGYLGCQALSEMIQFYLEEVMPQAENQDPDIKAHVNSLGENLKTLRLRLRRCHRFLPCENKSKAVEQVKNAFNKLQEKGIYKAMSEFDIFINYIEAYMTMKIRN
notes: anti-CD86 3D1 scFv - Fc - IL10
Second Site ka (CD86-mIgG (Ancell, Inc) [1]): 0.0094 s⁻¹
Second Site kd (CD86-mIgG (Ancell, Inc) [1]): 0.0462 s⁻¹
koff (CD86-mIgG (Ancell, Inc) [2]): 7.06e-05 s⁻¹
kon (CD86-mIgG (Ancell, Inc) [2]): 974000 M⁻¹ s⁻¹
Kd (CD86-mIgG (Ancell, Inc) [3]): 26.5 nM

B3: FUN1-21 humanized FUN1 SMIP (Fc fusion)
chain: QVQLVQSGAEVKKPGASVKVSCKASGYTFTDYNMNWVRQAPGQGLEWMGNIDPYYGGTSYNQKFKGRVTMTRDTSISTAYMELSRLRSDDTAVYYCARWDYRYDDGRAYYVMDFWGQGTTVTVSSGGGGSGGGGSGGGGSGGGGSDIVMTQSPDSLAVSLGERATINCKSSQSVLYSSNQKNYLAWYQQKPGQPPKLLIYWASTRESGVPDRFSGSGSGTDFTLTISSLQAEDVAVYYCHQYLYSWTFGQGTKLEIKRLEPKSSDKTHTCPPCPAPEAAGAPSVFLFPPKPKDTLMISRTPEVTCVVVDVSHEDPEVKFNWYVDGVEVHNAKTKPREEQYNSTYRVVSVLTVLHQDWLNGKAYACAVSNKALPAPIEKTISKAKGQPREPQVYTLPPSRDELTKNQVSLTCLVKGFYPSDIAVEWESNGQPENNYKTTPPVLDSDGSFFLYSKLTVDKSRWQQGNVFSCSVMHEALHNHYTQKSLSLSPG
notes: SMIP: scFv-hinge-Fc single chain
Second Site ka (CD86-mIgG (Ancell, Inc) [1]): 0.00578 s⁻¹
Second Site kd (CD86-mIgG (Ancell, Inc) [1]): 0.0127 s⁻¹
koff (CD86-mIgG (Ancell, Inc) [2]): 0.000139 s⁻¹
kon (CD86-mIgG (Ancell, Inc) [2]): 186000 M⁻¹ s⁻¹
Kd (CD86-mIgG (Ancell, Inc) [3]): 26.9 nM

B4: FUN1-11 humanized FUN1 SMIP (Fc fusion)
chain: EVQLVQSGAEVKKPGATVKISCKVSGYTFTDYNMNWVQQAPGKGLEWMGNIDPYYGGTSYNQKFKGRVTITADTSTDTAYMELSSLRSEDTAVYYCATWDYRYDDGRAYYVMDFWGQGTTVTVSSGGGGSGGGGSGGGGSGGGGSDIVMTQSPDSLAVSLGERATINCKSSQSVLYSSNQKNYLAWYQQKPGQPPKLLIYWASTRESGVPDRFSGSGSGTDFTLTISSLQAEDVAVYYCHQYLYSWTFGQGTKLEIKRLEPKSSDKTHTCPPCPAPEAAGAPSVFLFPPKPKDTLMISRTPEVTCVVVDVSHEDPEVKFNWYVDGVEVHNAKTKPREEQYNSTYRVVSVLTVLHQDWLNGKAYACAVSNKALPAPIEKTISKAKGQPREPQVYTLPPSRDELTKNQVSLTCLVKGFYPSDIAVEWESNGQPENNYKTTPPVLDSDGSFFLYSKLTVDKSRWQQGNVFSCSVMHEALHNHYTQKSLSLSPG
notes: as for B3
Second Site ka (CD86-mIgG (Ancell, Inc) [1]): 7.5e-05 s⁻¹
Second Site kd (CD86-mIgG (Ancell, Inc) [1]): 1.25e-06 s⁻¹
koff (CD86-mIgG (Ancell, Inc) [2]): 0.00035 s⁻¹
kon (CD86-mIgG (Ancell, Inc) [2]): 13900 M⁻¹ s⁻¹
Kd (CD86-mIgG (Ancell, Inc) [3]): 119 nM

B5: 3D1 SMIP (Fc fusion)
chain: QVQLQQSGPELVRPGESVKISCKGSGYTFTDYAIQWVKQSHAKSLEWIGVINIYYDNTNYNQKFKGKATMTVDKSSSTAYMELARLTSEDSAIYYCARAAWYMDYWGQGTSVTVSSGGGGSGGGGSGGGGSGGGGSDIVLSQSPSSLAVSAGEKVTMSCKSSQSLLNSRTRENYLAWYQQKPGQSPKLLIYWASTRESGVPDRFTGSGSGTDFTLTISSVQAEDLAVYYCTQSYNLYTFGGGTKLEIKLEPKSSDKTHTCPPCPAPEAAGAPSVFLFPPKPKDTLMISRTPEVTCVVVDVSHEDPEVKFNWYVDGVEVHNAKTKPREEQYNSTYRVVSVLTVLHQDWLNGKAYACAVSNKALPAPIEKTISKAKGQPREPQVYTLPPSRDELTKNQVSLTCLVKGFYPSDIAVEWESNGQPENNYKTTPPVLDSDGSFFLYSKLTVDKSRWQQGNVFSCSVMHEALHNHYTQKSLSLSPG
notes: SMIP: murine 3D1 scFv at the N-terminus of a hinge-Fc single chain
Second Site ka (CD86-mIgG (Ancell, Inc) [1]): 0.0055 s⁻¹
Second Site kd (CD86-mIgG (Ancell, Inc) [1]): 0.0276 s⁻¹
koff (CD86-mIgG (Ancell, Inc) [2]): 4.4e-05 s⁻¹
kon (CD86-mIgG (Ancell, Inc) [2]): 323000 M⁻¹ s⁻¹
Kd (CD86-mIgG (Ancell, Inc) [3]): 11.7 nM

B6: IL10::3D1 xceptor (Fc fusion)
chain: SPGQGTQSENSCTHFPGNLPNMLRDLRDAFSRVKTFFQMKDQLDNLLLKESLLEDFKGYLGCQALSEMIQFYLEEVMPQAENQDPDIKAHVNSLGENLKTLRLRLRRCHRFLPCENKSKAVEQVKNAFNKLQEKGIYKAMSEFDIFINYIEAYITMKIRNLEPKSSDKTHTCPPCPAPEAAGAPSVFLFPPKPKDTLMISRTPEVTCVVVDVSHEDPEVKFNWYVDGVEVHNAKTKPREEQYNSTYRVVSVLTVLHQDWLNGKAYACAVSNKALPAPIEKTISKAKGQPREPQVYTLPPSRDELTKNQVSLTCLVKGFYPSDIAVEWESNGQPENNYKTTPPVLDSDGSFFLYSKLTVDKSRWQQGNVFSCSVMHEALHNHYTQKSLSLSPGNSLFNQEVQIPLTESYSPNSQVQLQQSGPELVRPGESVKISCKGSGYTFTDYAIQWVKQSHAKSLEWIGVINIYYDNTNYNQKFKGKATMTVDKSSSTAYMELARLTSEDSAIYYCARAAWYMDYWGQGTSVTVSSGGGGSGGGGSGGGGSGGGGSDIVLSQSPSSLAVSAGEKVTMSCKSSQSLLNSRTRENYLAWYQQKPGQSPKLLIYWASTRESGVPDRFTGSGSGTDFTLTISSVQAEDLAVYYCTQSYNLYTFGGGTKLEIK
Second Site ka (CD86-mIgG (Ancell, Inc) [1]): 0.0124 s⁻¹
Second Site kd (CD86-mIgG (Ancell, Inc) [1]): 0.102 s⁻¹
koff (CD86-mIgG (Ancell, Inc) [2]): 8.3e-05 s⁻¹
kon (CD86-mIgG (Ancell, Inc) [2]): 617000 M⁻¹ s⁻¹
Kd (CD86-mIgG (Ancell, Inc) [3]): 35.7 nM

B7: FUN1 mAb (parent murine anti-CD86 monoclonal antibody) (antibody, V domains shown)
VH: EVQLQQSGPELEKPGASVKISCKASGYSFTDYNMNWVKQSNGKSLEWIGNIDPYYGGTSYNQKFKGKATLTVDKSSSTAYMQLNSLTSEDSAVYFCARWDYRYDDGRAYYVMDFWGQGTSVTVSS
VL: ELQMTQSPSSLAASAGEKVTMSCKSSQSVLYSSNQKNYLAWYQQKPGQSPKLLIYWASTRESGVPDRFTGSGSGTHFTLTVSSVQAEDLAVYYCHQYLYSWTFGGGTNLEIKR
notes: Murine monoclonal antibody; also called FUN1 antibody
Second Site ka (CD86-mIgG (Ancell, Inc) [1]): 0.00278 s⁻¹
Second Site kd (CD86-mIgG (Ancell, Inc) [1]): 0.0154 s⁻¹
koff (CD86-mIgG (Ancell, Inc) [2]): 2.28e-05 s⁻¹
kon (CD86-mIgG (Ancell, Inc) [2]): 129000 M⁻¹ s⁻¹
Kd (CD86-mIgG (Ancell, Inc) [3]): 36 nM

B8: SEQ ID NO: 328 (Fc fusion)
chain: EPKSSDKTHTCPPCPAPEAAGAPSVFLFPPKPKDTLMISRTPEVTCVVVDVSHEDPEVKFNWYVDGVEVHNAKTKPREEQYNSTYRVVSVLTVLHQDWLNGKAYACAVSNKALPAPIEKTISKAKGQPREPQVYTLPPSRDELTKNQVSLTCLVKGFYPSDIAVEWESNGQPENNYKTTPPVLDSDGSFFLYSKLTVDKSRWQQGNVFSCSVMHEALHNHYTQKSLSLSPGNSLFNQEVQIPLTESYSPNSQVQLQQSGPELVRPGESVKISCKGSGYTFTDYAIQWVKQSHAKSLEWIGVINIYYDNTNYNQKFKGKATMTVDKSSSTAYMELARLTSEDSAIYYCARAAWYMDYWGQGTSVTVSSGGGGSGGGGSGGGGSGGGGSDIVLSQSPSSLAVSAGEKVTMSCKSSQSLLNSRTRENYLAWYQQKPGQSPKLLIYWASTRESGVPDRFTGSGSGTDFTLTISSVQAEDLAVYYCTQSYNLYTFGGGTKLEIK
notes: also called 3D1 PIMS (probably)
Second Site ka (CD86-mIgG (Ancell, Inc) [1]): 0.00077 s⁻¹
Second Site kd (CD86-mIgG (Ancell, Inc) [1]): 0.00377 s⁻¹
koff (CD86-mIgG (Ancell, Inc) [2]): 2.37e-05 s⁻¹
kon (CD86-mIgG (Ancell, Inc) [2]): 112000 M⁻¹ s⁻¹
Kd (CD86-mIgG (Ancell, Inc) [3]): 28 nM
